How the values were obtained:
[1] = target: HIV-1 AD8 gp41 (wild type), cut from Env gp160; assay: radioimmunoprecipitation with HIVIG of metabolically labelled cell lysates and supernatants, SDS-PAGE, phosphorimager scanning
[2] = target: HIV-1 AD8 gp41 K601D (HIV-1 AD8); assay: gp120 shedding assay (radioimmunoprecipitation of cell lysates and culture supernatants); 293T cells transfected with Env vectors, 35S pulse 45 min, chase 5-6 h; cell lysates and clarified supernatants immunoprecipitated with IgG14 and protein G Sepharose; reducing SDS-PAGE, phosphorimager; gp120-shedding index against WT
[3] = target: HIV-1 AD8 gp41 K601N (HIV-1 AD8); assay: as above
[4] = target: HIV-1 AD8 gp41 (wild type), cut from Env gp160 (HIV-1 AD8)
[5] = target: HIV-1 AD8 gp41 K601N (HIV-1 AD8)

Chain of C34, HR2-based fusion inhibitor peptide (P03375 628-661): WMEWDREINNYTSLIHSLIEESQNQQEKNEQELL

Substance | other: gp120-shedding index [1] | further results
HIV-1 AD8 gp120 (wild type), cut from Env gp160 S158N | 3.6 | –
HIV-1 AD8 gp120 (wild type), cut from Env gp160 S188N | 1.6 | –
HIV-1 AD8 gp120 (wild type), cut from Env gp160 (natural protein) | – | gp120 shedding, fold with respect to WT [2]: 6.8 fold; gp120 shedding, fold with respect to WT [3]: 4.4 fold
HIV-1 AD8 gp120 (wild type), cut from Env gp160 S144N | 0.6 | –
HIV-1 AD8 gp120 T138N (natural protein) | – | gp120-gp41 association, fold improvement with respect to K601D [2]: 2 fold
HIV-1 AD8 gp120 (wild type), cut from Env gp160 T138N | 0.5 | –
HIV-1 AD8 gp120 (wild type), cut from Env gp160 N160Q | 0.7 | –
HIV-1 AD8 gp120 (wild type), cut from Env gp160 S143N | 0.6 | –
C34, HR2-based fusion inhibitor peptide | – | IC50 of C34 for inhibition of cell-cell fusion by WT Env (luciferase) [4]: 100 nM; IC50 of C34 for inhibition of cell-cell fusion by ΔN139INN/K601N Env (luciferase) [5]: 100 nM

Reference: paper PMC3616969
